# System: Escherichia coli TOP10
# Assay: shrunken log2 fold change of peptide-encoding DNA abundance (4.5 h post-induction vs induction); higher = less antimicrobial activity (less host growth inhibition)
# Settings: time post-induction: 4.5 h; library: site-saturation at positions 5, 18, 19, 20
# 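Further: peptides expressed intracellularly from a pBAD plasmid library in pooled LB shake-flask culture, induced with 0.3% L-arabinose, DNA abundance read by NGS, three biological replicates, DESeq2 with apeglm shrinkage.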
row,Sequence,shrunken log2 fold change
1,RRIRRRPPRLPRPRPRPKQLPRP,0.148
2,RRIRSRPPRLPRPRPRPAKKPRP,0.0292
3,RRIRSRPPRLPRPRPRPIIEPRP,-0.114
4,RRIRNRPPRLPRPRPRPVKKPRP,-0.0236
5,RRIRSRPPRLPRPRPRPYDCPRP,-0.0167
6,RRIRPRPPRLPRPRPRPGNCPRP,-0.0898
7,RRIRHRPPRLPRPRPRPPGGPRP,0.443
8,RRIRFRPPRLPRPRPRPAFWPRP,0.516
9,RRIRMRPPRLPRPRPRPCAKPRP,0.207
10,RRIRARPPRLPRPRPRPENWPRP,0.569
11,RRIRSRPPRLPRPRPRPSSSPRP,-0.353
12,RRIRARPPRLPRPRPRPVHRPRP,-0.0852
13,RRIRIRPPRLPRPRPRPIVVPRP,-0.666
14,RRIRGRPPRLPRPRPRPARHPRP,0.664
15,RRIRHRPPRLPRPRPRPIQYPRP,-0.122
16,RRIRERPPRLPRPRPRPGAMPRP,0.316
17,RRIRKRPPRLPRPRPRPFPRPRP,0.297
18,RRIRMRPPRLPRPRPRPFCLPRP,-0.15
19,RRIRMRPPRLPRPRPRPTYPPRP,-0.0846
20,RRIRYRPPRLPRPRPRPANSPRP,-0.11
21,RRIRQRPPRLPRPRPRPNMWPRP,-0.419
22,RRIRPRPPRLPRPRPRPYREPRP,-0.073
23,RRIRMRPPRLPRPRPRPDWMPRP,-0.0455
24,RRIRTRPPRLPRPRPRPFIHPRP,-0.0383
25,RRIRARPPRLPRPRPRPRLSPRP,0.358

row,Sequence,shrunken log2 fold change
1,RRIRCRPPRLPRPRPRPTFPPRP,-0.0779
2,RRIRERPPRLPRPRPRPDWCPRP,0.0337
3,RRIRSRPPRLPRPRPRPAWNPRP,0.467
4,RRIRNRPPRLPRPRPRPNDIPRP,-0.418
5,RRIRVRPPRLPRPRPRPYMVPRP,-0.292
6,RRIRGRPPRLPRPRPRPMPAPRP,1.29
7,RRIRERPPRLPRPRPRPSVRPRP,-0.148
8,RRIRYRPPRLPRPRPRPNKGPRP,-0.618
9,RRIRTRPPRLPRPRPRPYVMPRP,-1.53
10,RRIRARPPRLPRPRPRPWYLPRP,-0.161
11,RRIRARPPRLPRPRPRPSTEPRP,0.396
12,RRIRRRPPRLPRPRPRPEVDPRP,0.0409
13,RRIRQRPPRLPRPRPRPDGSPRP,-0.0176
14,RRIRIRPPRLPRPRPRPHIKPRP,-1.12
15,RRIRIRPPRLPRPRPRPIPIPRP,-0.317
16,RRIRSRPPRLPRPRPRPTWQPRP,0.0157
17,RRIRDRPPRLPRPRPRPSFIPRP,-0.572
18,RRIRARPPRLPRPRPRPYIVPRP,-0.882
19,RRIRKRPPRLPRPRPRPENCPRP,0.654
20,RRIRARPPRLPRPRPRPICMPRP,0.055
21,RRIRARPPRLPRPRPRPQIKPRP,0.048
22,RRIRTRPPRLPRPRPRPCHYPRP,-0.253
23,RRIRRRPPRLPRPRPRPGGKPRP,0.0881
24,RRIRQRPPRLPRPRPRPVMMPRP,-0.335
25,RRIRKRPPRLPRPRPRPNMCPRP,0.0251

row,Sequence,shrunken log2 fold change
1,RRIRSRPPRLPRPRPRPVQYPRP,-0.00908
2,RRIRYRPPRLPRPRPRPQCKPRP,-1.34
3,RRIRMRPPRLPRPRPRPKWFPRP,0.275
4,RRIRYRPPRLPRPRPRPRTFPRP,-0.757
5,RRIRQRPPRLPRPRPRPRWTPRP,0.25
6,RRIRHRPPRLPRPRPRPKTQPRP,-0.15
7,RRIRARPPRLPRPRPRPAWLPRP,0.597
8,RRIRSRPPRLPRPRPRPAISPRP,0.153
9,RRIRERPPRLPRPRPRPLSWPRP,0.04
10,RRIRYRPPRLPRPRPRPYQGPRP,0.00408
11,RRIRVRPPRLPRPRPRPSCAPRP,-0.16
12,RRIRVRPPRLPRPRPRPVCEPRP,0.206
13,RRIRRRPPRLPRPRPRPVKWPRP,0.111
14,RRIRHRPPRLPRPRPRPPHWPRP,0.375
15,RRIRRRPPRLPRPRPRPDSNPRP,0.0666
16,RRIRKRPPRLPRPRPRPRLIPRP,0.234
17,RRIRLRPPRLPRPRPRPPLRPRP,0.386
18,RRIRVRPPRLPRPRPRPYHPPRP,-0.406
19,RRIRCRPPRLPRPRPRPFWCPRP,-0.397
20,RRIRRRPPRLPRPRPRPQRQPRP,0.175
21,RRIRYRPPRLPRPRPRPKKPPRP,0.00704
22,RRIRNRPPRLPRPRPRPHYKPRP,-0.333
23,RRIRTRPPRLPRPRPRPKCYPRP,-0.0601
24,RRIRARPPRLPRPRPRPGCKPRP,0.321
25,RRIRWRPPRLPRPRPRPPINPRP,-0.0948
